Experimental data published in patent US20220332816A1 (SINGLE CELL TECHNOLOGY, published 2022).

T1: Recombinant human TIGIT (human, UniProt Q495A1 22-141, limits assumed)
T1 construct: also called T cell immunoreceptor with Ig and ITIM domains
T1 sequence: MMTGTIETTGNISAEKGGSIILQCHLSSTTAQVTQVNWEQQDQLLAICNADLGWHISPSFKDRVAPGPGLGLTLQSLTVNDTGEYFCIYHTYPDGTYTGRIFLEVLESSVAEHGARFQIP

T2: TIGIT on the engineered cell lines of the TIGIT/CD155 Blockade Bioassay (J2201, Promega) (UniProt Q495A1 22-244, limits assumed)
T2 sequence (looked up): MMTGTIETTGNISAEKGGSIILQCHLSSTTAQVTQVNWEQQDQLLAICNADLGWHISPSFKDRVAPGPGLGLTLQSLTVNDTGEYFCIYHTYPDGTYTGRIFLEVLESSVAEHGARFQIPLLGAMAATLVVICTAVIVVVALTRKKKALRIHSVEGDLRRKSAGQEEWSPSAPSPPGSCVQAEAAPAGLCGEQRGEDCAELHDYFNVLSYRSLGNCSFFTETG


Experiments:
[1] = molecular target: TIGIT on the engineered cell lines of the TIGIT/CD155 Blockade Bioassay (J2201, Promega) (UniProt Q495A1); assay: cell-based or functional assay
Recombinant human TIGIT = molecular target: T1, Recombinant human TIGIT; assay: ELISA, recombinant human TIGIT coated on plate, serially diluted antibody
Procedure: The recombinantly expressed antibodies were used to assess binding activity to TIGIT by conventional ELISA according to the known art. Recombinant human TIGIT was coated onto ELISA plates to detect binding at serially diluted concentrations of the anti-TIGIT antibody preparations (FIG. 1). Anti-TIGIT antibodies' blockade activity was assessed using engineered cell lines, kit reagents (TIGIT/CD155 Blockade Bioassay, J2201, Promega, Madison, Wis.), and a luminometer (Promega, Madison, Wis.) and the results were used to compare against benchmark antibodies with known blockade activity (FIG. 2). Similarly, these antibodies were assessed for their ability to synergize with an anti-PD-1 antibody using a PD-1+TIGIT combination bioassay (Cat. No. J2211 Promega, Madison, Wis.).

[2] = molecular target: T2, TIGIT on the engineered cell lines of …; assay: cell-based or functional assay

Row | Molecule | Blockade EC50 [1] | EC50 (Recombinant human TIGIT) | Blockade EC50 [2]
1 | MK-7684 (antibody) | 24.8 nM |  | 
2 | SCT-Ga461 (antibody, V domains shown) VH: EVQLVESGGGLVQPGGSLRLSCAASGFTFSSYTMSWVRQAPGKGLEWVATISSGGSYTYYPDSVKGRFTISRDNAKNTLYLQMNSLRAEDTAVYYCTRWLLSLYAMDYWGQGTLVTVSS VL: AIQMTQSPSSLSASVGDRVTITCQASQNINVWLSWYQQKPGKAPKLLIYKASTLASGVPSRFSGSGSGTDFTLTISSLQPDDFATYYCQQGQTYPFTFGGGTKVEIK |  | 4.55 nM | 
3 | SCT-Ga255 (antibody, V domains shown, Murine variable domains) VH: EVKLVESGGGLVKPGGSLKLSCAASGFAFSSFDMSWVRQTPEKRLEWVAVISSGGSYTFYPDSVKGRFTISRDNARNTLYLQMSSLRSEDTALYFCTRQDYRYPYIMDYWGQGTSVTVSS VL: DIQMNQSPSSLSASLGDTITITCHASQNINVWLSWYQQKPGNIPKLLIYKASNLHTGVPSRFSGSGSGAGFTLTISSLQPEDIATYYCQQGQSYPWTFGGGTKLEIK |  | 0.96 nM | 33.4 nM
4 | SCT-Ga495 (antibody, V domains shown) VH: EVKLVESGGGLVQPGGSLRLSCAASGFAFSSFDMSWVRQAPGKGLEWVAVISSGGSYTFYPDSVKGRFTISRDNSKNTLYLQMNSLRAEDTALYFCTRQDYRYPYIMDYWGQGTLVTVSS VL: AIQMTQSPSSLSASVGDRVTITCQASQNINVWLSWYQQKPGKAPKLLIYKASTLASGVPSRFSGSGSGTDFTLTISSLQPDDFATYYCQQGQSYPWTFGGGTKVEIK |  | 0.69 nM | 
5 | SCT-Ga496 (antibody, V domains shown) VH: EVKLVESGGGLVQPGGSLRLSCAASGFAFSSFDMSWVRQAPGKGLEWVAVISSGGSYTFYPDSVKGRFTISRDNSKNTLYLQMNSLRAEDTALYFCTRQDYRYPYIMDYWGQGTLVTVSS VL: DIQMTQSPSSLSASVGDRVTITCHASQNINVWLSWYQQKPGKAPKLLIYKASTLASGVPSRFSGSGSGTDFTLTISSLQPDDFATYYCQQGQSYPWTFGGGTKVEIK |  | 0.67 nM | 

More lines, in order of falling EC50 (Recombinant human TIGIT), values ahead:

Row | Blockade EC50 [1] | EC50 (Recombinant human TIGIT) | Blockade EC50 [2] | Molecule
6 |  | 5.03 nM | 26.6 nM | SCT-Ga001 (antibody, V domains shown, Murine variable domains) VH: QVQLQQSGAELVRPGTSVKVSCKASGYAFTNYLIEWVKQRPGQGLEWIGVINPGSGGSKYNEKFKGKTTLTADKSSSTAYMQLSSLTSEDSAVYFCARTGVYGNFLIFDYWGQGTTLTVSS VL: DIVLTQSPSSLSVAAGEKVTLSCKSSQSLLNSGIQKNYLAWYQQKPGQPPKLLIYGASTRESGVPDRFTGSGSGTDFTLTISSVQAEDLAVYYCQNDHRYPFTFGGGTKLEIK
7 |  | 1.96 nM |  | SCT-Ga487 (antibody, V domains shown) VH: QVQLQQPGAELVKPGASVKMSCKATGYTFSNYWIEWVKQTPGRGLEWIGEILPGSGSSYYNQKFKGKATLTADKSSSTAYMQLSSLTSEDSAVYYCARQKYGNFYYFDFWGAGTTVTVSA VL: AIQMTQSPSSLSASVGDRVTITCRASQGIGNYLNWYQQKPGKAPKLLIYYTSSLHSGVPSRFSGSGSGTDYTFTISSLQPEDIATYYCHQYSKLPYTFGQGTKVEIK
8 |  | 1.22 nM | 28.1 nM | SCT-Ga249 (antibody, V domains shown, Murine variable domains) VH: QVQLQQSGGELMKPGASVKISCKATGYTFSNYWIEWVKQRPGHGLEWIGEILPGSGSSYYNEKFKGRATFTADKSSNTAYMQLSSLTSEDSAVYYCARQKYGNFYYFDFWGQGTTLTVSS VL: AIQMTQTTSSLSASLGDRVTISCSASQGIGNYLNWYQQKPDGTVKLLIYYTSSLHSGVPSRFSGSGSGTDYSLTISDLEPEDIATYYCHQYSKLPYTFGGGTKLEIK
9 |  | 1.1 nM | 25.2 nM | SCT-Ga433 (antibody, V domains shown, Murine variable domains) VH: DVKLVESGGGLVKPGGSLKLSCSASGFTFSSYTMSWVRQTPEKRLEWVATISSGGSYTYYPDSVKGRFTISRDNAKNTLYLQMSSLKSEDTAMFYCTRWLLSLYAMDYWGQGTSVTVSS VL: DIQMNQSPSSLSASLGDTITITCHASQNINVWLSWYQQKPGNISKLLIYKASNFHTGVPSRFSGSGSGTNFTLTISSLQPEDIATYYCQQGQTYPFTFGGGTKLEIK
10 |  | 1.08 nM | 42.2 nM | SCT-Ga333 (antibody, V domains shown, Murine variable domains) VH: QVQLQQSGAELVRPGTSVKVSCKASGYAFTNYLIEWVKQRPGQGLEWIGVINPGSGGNNYNEKFKGKATLTADKSSSTAYMQLSSLTSDDSAVYFCARRGDKYGSAWFAYWGQGTLVTVSA VL: DIVMTQSHKFMSTSVGDRVSITCKASQDVSTAVAWYQQKPGQSPKLLIYSASYRYTGVPDRFTGSGSGTDFTFTISSVQAEDLAVYYCQQHYSSPRTFGGGTKLEIK
11 |  | 0.82 nM |  | SCT-Ga498 (antibody, V domains shown) VH: QVQLQQSGAEVKKPGASVKVSCKASGYAFTNYLIEWVKQAPGQGLEWIGVINPGSGGNNYNEKFKGRATITADKSTSTAYMELSSLRSEDTAVYFCARRGDKYGSAWFAYWGQGTTVTVSA VL: DIVMTQSQRFMSTTVGDRVSITCKASQDVSTAVAWYQQKPGQSPKLLIYSASYRYTGVPDRFTGSGSGTDFTLTISNMQSEDLAVYYCQQHYSSPRTFGGGTKLEIK
12 |  | 0.79 nM |  | SCT-Ga485 (antibody, V domains shown) VH: QVQLVQSGAEVKKPGASVKVSCKASGYAFTNYLIEWVKQAPGQGLEWIGVINPGSGGSKYNEKFKGRATITADKSTSTAYMELSSLRSEDTAVYFCARTGVYGNFLIFDYWGQGTTVTVSS VL: DIVMTQSPDSLAVSLGERATINCKSSQSLLNSGIQKNYLAWYQQKPGQPPKLLIYGASTRESGVPDRFSGSGSGTDFTLTISSLQAEDVAVYYCQNDHRYPFTFGGGTKLEIK
